Tests used:
[1] = test system: 67PfluR64PP RNA polymerase

Substance: 67PfluR64PP lysozyme
- reduction of leaky msfGFP expression caused by the phi15 RNAP (P. putida, 4 mM Rha) (phi15 RNA polymerase): The 67PfluR64PP lysozyme reduced the leaky expression by 58%
- reduction of msfGFP output upon lysozyme induction (P. putida, 4 mM Rha) [1]: 67PfluR64PP (-51%)

Substance: PPPL-1 lysozyme
- reduction of msfGFP output upon lysozyme induction (P. putida, 4 mM Rha) (PPPL-1 RNA polymerase): PPPL-1 (-39%)

Substance: Pf-10 lysozyme
- reduction of msfGFP output upon lysozyme induction (P. putida, 4 mM Rha) (Pf-10 RNA polymerase): Pf-10 (-80%)

Substance: phi15 lysozyme (G3RQ)
- dynamic range of the system (fold induction), lysozyme integrated in PP4305, P. putida SEM11 (phi15 RNA polymerase): the dynamic range of the system increased from 33 to 107- and 70-fold, respectively
- dynamic range of the system (fold induction), lysozyme integrated in PP5388, P. putida SEM11 (phi15 RNA polymerase): the dynamic range of the system increased from 33 to 107- and 70-fold, respectively

Substance: phi15 lysozyme (wild-type)
- reduction of msfGFP output upon lysozyme induction (P. putida, 4 mM Rha) (phi15 RNA polymerase): The phi15 lysozyme caused only a -30% reduction of the msfGFP output
